The target in this assay is Translocated intimin receptor Tir of EHEC O157:H7 (enterohemorrhagic Escherichia coli O157:H7) (UniProt Q7DB77). Nature of the assay: cell-based or functional assay.
Sequence of UniProt Q7DB77 (Q7DB77 whole entry): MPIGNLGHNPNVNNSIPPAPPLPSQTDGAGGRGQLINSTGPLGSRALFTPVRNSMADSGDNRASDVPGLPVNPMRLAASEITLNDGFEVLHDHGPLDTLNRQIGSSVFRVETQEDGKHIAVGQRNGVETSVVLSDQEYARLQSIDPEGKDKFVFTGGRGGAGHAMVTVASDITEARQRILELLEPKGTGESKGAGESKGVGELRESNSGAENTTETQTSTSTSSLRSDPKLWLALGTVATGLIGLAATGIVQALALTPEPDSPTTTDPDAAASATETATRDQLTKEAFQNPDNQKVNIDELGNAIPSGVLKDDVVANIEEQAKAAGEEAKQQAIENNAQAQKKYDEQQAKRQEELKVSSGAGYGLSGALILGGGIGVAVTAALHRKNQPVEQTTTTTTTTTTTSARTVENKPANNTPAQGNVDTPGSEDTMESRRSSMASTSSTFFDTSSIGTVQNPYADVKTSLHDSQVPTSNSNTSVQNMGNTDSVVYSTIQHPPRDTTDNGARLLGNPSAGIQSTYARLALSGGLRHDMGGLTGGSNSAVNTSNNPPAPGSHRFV

Substance “Native intimin of EHEC O157:H7 strain 86-24 (from UniProt P43261 40-934)” had a microcolonies on HeLa cells (percent of cells) of 47%.

These data come from patent publication US20080286310A1.
